# According to PMC5675595:
# B1: FLAG-tagged IRAK2 WT [mouse] / ALYREF [human (endogenous in IL1R-293 and HeLa)] (parent)
# chain 1: MACYIYQLPSWVLDDLCRNIDTLSEWDWMQFASYVITDLTQLRKIKSMERVQGVSITRELLWWWSMRQATVQQLVDLLCHLELYRAAQIVLSWKPVPESTSPLPAFPEAVKPGAVATSRRNLKDEQEKVRPVKPRSLLDTGPIMAGAQRQRPCEMDAPCSLKTDAPDSPQSKYCSTSTSAPKQERLLGLPGDRLFWSEADVVQATEDFDQSHRISEGTFADIYQGQRNGVAFAFKKLREVAGSSPGSMDRFLQAEMQLCLRCCHANVLPLLGFCTGRQFHSLIYPYMANGSLHDRLWAQGNSDMLPWPQRASICSGLLLAVEHLHSLDIIHSNVKSANVLLDQHLNPKLAHPVAHPHPDNKKTKYTVMRTHLFQASAAYLPEHFIRVGQLTKQVDIFSCGIVLAEVLTGIPAMDKDRSPVYLKDLLLSEIPNSTSSVCSRKTSMGKAVVKEICQRHVEKRAGLLPEACEEAWATAVSVCLRRRNASVEEARVSLAGVEEQLRGQLSLPWSRVSEATGSSSNTPEETDDVDNSSLSVPSLVMMASCPGAASSPLFTGHGAAQPSTSGRQEADSSSEACTGPQTPQNATETSWKIEINEAKRRLMENIVLYKEERLDSSELFGP
# chain 2: not shown
# Variants of: B1
# Assay: proximity ligation assay (PLA)
# Conditions: with ALYREF [human (endogenous in IL1R-293 and HeLa)]; Hela cells transfected; Mouse anti-ALYREF and Rabbit anti-FLAG antibody; read off a plot
row,response (% PLA positive cells),Variant
1,0.2,chain 1 K235A K236A
2,0.6,chain 1 K361A K362A K364A
3,0.45,chain 1 K123R K182R K592R
